The values that follow come from the supplement of paper PMC7125110.

B1: glmS ribozyme (parent)
chain: AUAAAAGCGCCAGAACUACAGAAAUGUAGUUGACGAGGAGGAGGUUUAUCGAAUUUUCGGCGGAUGCCUCCAAA

± gives the standard error. Variants at the floor of the assay were thinned out.

Variants of B1 are the subject of the first series. Nature of the series: self-cleavage kobs at 2500 uM GlcN6P; higher = faster cleavage; RNA array. The conditions noted are these: with glucosamine-6-phosphate. A digest of the protocol:
(§1)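 The measurements used barcoded ribozyme variants on sequenced MiSeq chips, transcribed in situ by E. coli RNA polymerase and tracked at 37 °C with a hybridised Cy3 probe. Glucosamine-6-phosphate, 40 μM to 10 mM in HEPES/KCl/Mg(OAc)2 buffer, was flowed in while tiles were imaged over ~14 h. Baseline-normalised signals, also normalised to non-cleaving reference variants, gave per-tile medians that were fit to one- or two-exponential decays for kobs. kcat and KM resulted from weighted Michaelis–Menten fits across concentrations.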
For C10U A53G G66U C68G, the “self-cleavage kobs at 2500 uM GlcN6P” value was 4.34e-05 ± 1.4e-05 s⁻¹.
The same measure, in the same setting: as for U45C G60A G63C, the figure is below 1e-05 s⁻¹; as for C11U A64U C68U C71U, below 1e-05 s⁻¹.
On the same count and under the same terms, as for G38C U57G G59A A64G, the figure is below 1e-05 s⁻¹.
Same read-out and setting: to C10A G51A G66A C68A C70A belongs 7.81e-05 ± 3.1e-05 s⁻¹; to A12C U56G A64C, 6.67e-05 ± 2.1e-05 s⁻¹; to U30G G35U G59U, below 1e-05 s⁻¹.
Regarding A33U A48U G62U, the “self-cleavage kobs at 2500 uM GlcN6P” value is below 1e-05 s⁻¹.
On the same count and under the same terms, as for C8U A33C U45A A52U, the figure is below 1e-05 s⁻¹.
Still for that read-out and setting: as for C8A G35A G38A A53G, the figure is below 1e-05 s⁻¹; as for C11U U30G U45G, 0.000105 ± 4e-05 s⁻¹.
Same read-out and setting: to U55G C58U C70U belongs 4.84e-05 ± 1.7e-05 s⁻¹.
C16U G37U G41A: the “self-cleavage kobs at 2500 uM GlcN6P” value was below 1e-05 s⁻¹.
The same measure, in the same setting: as for G13U A14C G32U C61G, the figure is below 1e-05 s⁻¹; as for A6U A36C C67G, below 1e-05 s⁻¹; as for C8U G43C A52U C70U, below 1e-05 s⁻¹.
Still for that read-out and setting: as for A33C U49G U69C, the figure is below 1e-05 s⁻¹.
Still for that read-out and setting: to C11U A39U U49A U69C belongs below 1e-05 s⁻¹.
On to A12U C34U G38A C50G, for which the “self-cleavage kobs at 2500 uM GlcN6P” value amounted to 0.000122 ± 3e-05 s⁻¹.
Take U30G C34A C68U: the “self-cleavage kobs at 2500 uM GlcN6P” value was below 1e-05 s⁻¹.
The same measure, in the same setting: as for G40U A42G C70U, the figure is 0.00344 ± 0.00066 s⁻¹; as for C11A A15U G44C, below 1e-05 s⁻¹; as for A53U C58G C61G C71G, 0.000415 ± 0.00016 s⁻¹.
On the same count and under the same terms, to G13C G29C U55A belongs 8.97e-05 ± 2.5e-05 s⁻¹; to A15U G44C A64G, below 1e-05 s⁻¹; to A15G G60U G63C, below 1e-05 s⁻¹.
Still for that read-out and setting: as for A6G C11G U47A, the figure is below 1e-05 s⁻¹; as for A6G U30A A39G, 8.54e-05 ± 2.8e-05 s⁻¹; as for U30C G44A G66U, below 1e-05 s⁻¹.
On to C10G G37C C67U, for which the “self-cleavage kobs at 2500 uM GlcN6P” value was below 1e-05 s⁻¹.
C34U A39U G41C U69G: the “self-cleavage kobs at 2500 uM GlcN6P” value is below 1e-05 s⁻¹.
Same read-out and setting: to G40A U56A C70G belongs 0.000135 ± 3e-05 s⁻¹; to C10G G41U G59C G60C, below 1e-05 s⁻¹; to A12G G13C G29A G40A U45C, below 1e-05 s⁻¹.
Still for that read-out and setting: to G7A C8G C10G G35C belongs below 1e-05 s⁻¹; to C34A G43A A64G, below 1e-05 s⁻¹.
Same read-out and setting: as for C10A U45G U54G, the figure is below 1e-05 s⁻¹; as for A15C U31C G41C U57G, below 1e-05 s⁻¹; as for G13U C67U C70U, 6.19e-05 ± 2.3e-05 s⁻¹.
Turning to A6U G44U G63C, the “self-cleavage kobs at 2500 uM GlcN6P” value is below 1e-05 s⁻¹.
Same read-out and setting: to C8A C34G G66C belongs below 1e-05 s⁻¹.
On the same count and under the same terms, as for G29A G32C A64U, the figure is below 1e-05 s⁻¹; as for C10U G40A C70G, below 1e-05 s⁻¹.
On the same count and under the same terms, to G13C U55A belongs 6.85e-05 ± 1.6e-05 s⁻¹; to G63C G66U C71A, below 1e-05 s⁻¹.
Consider U46A A64G G66A C71G, for which the “self-cleavage kobs at 2500 uM GlcN6P” value was found to be 6.58e-05 ± 2.6e-05 s⁻¹.
On the same count and under the same terms, as for G32C A36U A53C, the figure is below 1e-05 s⁻¹.
On the same count and under the same terms, as for A14U A48U U54G G60C U69A C71U, the figure is 4.74e-05 ± 1.9e-05 s⁻¹; as for C10G G63C G66U, below 1e-05 s⁻¹; as for A14U G32U A53G, 0.000242 ± 7.5e-05 s⁻¹.
In the case of A14C G29U A53G U65G, the “self-cleavage kobs at 2500 uM GlcN6P” value came to 6.14e-05 ± 1.8e-05 s⁻¹.
The same measure, in the same setting: as for C8G C10U C11U G13A C34G, the figure is below 1e-05 s⁻¹; as for G29U A39U G59C C61A, below 1e-05 s⁻¹; as for A48C U49C G59C, below 1e-05 s⁻¹.
U30C G63A U69G: the “self-cleavage kobs at 2500 uM GlcN6P” value is 8.06e-05 ± 3.9e-05 s⁻¹.
Still for that read-out and setting: to A6C A12G A53U belongs below 1e-05 s⁻¹.
On the same count and under the same terms, to A14U U30G U31C A53U belongs 0.00047 ± 0.00013 s⁻¹.
The same measure, in the same setting: as for A12G A52G G60C U65G, the figure is below 1e-05 s⁻¹; as for G29C C58G G59C C61A G63A, below 1e-05 s⁻¹.
For the variant U45C U55A U65C, the “self-cleavage kobs at 2500 uM GlcN6P” value was found to be 4.27e-05 ± 1.2e-05 s⁻¹.
Still for that read-out and setting: to G13U A14G A36G U55A belongs below 1e-05 s⁻¹; to A33C G35U U57C, below 1e-05 s⁻¹; to A14C U31C U54C, 0.0014 ± 0.00039 s⁻¹.
Same read-out and setting: to A36C G37A G51C C61U belongs below 1e-05 s⁻¹; to A48U C50U U56C G63A A64C U65A, below 1e-05 s⁻¹; to C8U A33G A64U, below 1e-05 s⁻¹.
Still for that read-out and setting: as for C16A U46C U56C G63U C70U, the figure is below 1e-05 s⁻¹.
A14C U31A A42C A48G C71G: the “self-cleavage kobs at 2500 uM GlcN6P” value was below 1e-05 s⁻¹.
Take U47G G62A C70G: the “self-cleavage kobs at 2500 uM GlcN6P” value turned out to be 0.000139 ± 3.4e-05 s⁻¹.
The same measure, in the same setting: to A12G G13U G51U G63U C70A belongs 0.000271 ± 9.9e-05 s⁻¹; to G7U G59A C61U, below 1e-05 s⁻¹.
On the same count and under the same terms, as for G43U U45C C71G, the figure is below 1e-05 s⁻¹; as for G41U U54G U56G G60A C70A, 7.76e-05 ± 2.1e-05 s⁻¹.
Still for that read-out and setting: as for U30G U57A, the figure is 4.22e-05 ± 1.5e-05 s⁻¹; as for A14G A42G A52U, 9.16e-05 ± 3.3e-05 s⁻¹; as for C8G A39C C58U, below 1e-05 s⁻¹.
For A33C A36C G38U G41A G66C, the “self-cleavage kobs at 2500 uM GlcN6P” value is below 1e-05 s⁻¹.
Still for that read-out and setting: to A52U A53U G62A U65G C71G belongs below 1e-05 s⁻¹; to C8G C58G, below 1e-05 s⁻¹.
The same measure, in the same setting: as for A6U A12U U46C C50U, the figure is below 1e-05 s⁻¹; as for A15U G35U G38U U49G U54A, below 1e-05 s⁻¹.
Same read-out and setting: as for A33G A36U U65G, the figure is below 1e-05 s⁻¹; as for A39U U47C U56A, 0.00121 ± 0.00039 s⁻¹.
With G35A C61U, the “self-cleavage kobs at 2500 uM GlcN6P” value is below 1e-05 s⁻¹.
The same measure, in the same setting: as for C10U G26A, the figure is 7.4e-05 ± 2.8e-05 s⁻¹.

Variants of B1 are the subject of another series. Put plainly: self-cleavage kobs at 10000 uM GlcN6P; higher = faster cleavage; RNA array. Conditions: with glucosamine-6-phosphate. A digest of the protocol: as §1
Take C16U G37U G41A: the “self-cleavage kobs at 10000 uM GlcN6P” value is below 1e-05 s⁻¹.
C8G C10U C11U G13A C34G: the “self-cleavage kobs at 10000 uM GlcN6P” value was below 1e-05 s⁻¹.
Still for that read-out and setting: as for U30G U57A, the figure is 8.3e-05 ± 1.8e-05 s⁻¹.
